Source: paper doi:10.1101/2022.04.26.489605 (bioRxiv, 2022)
Values joined by “and” are separate entries in the source; they are usually repeats but may differ in a detail not shown here. Identical values can stand only once. Blank lines part the entries; values can stand above or below the molecule they belong to.

Tests used:
[1] = molecular target: human leucine-rich repeat kinase 2 (LRRK2), full-length, recombinant (human) (UniProt Q5S007); test: cryo-EM structure
[2] = molecular target: human leucine-rich repeat kinase 2 (LRRK2), full-length, recombinant (human, UniProt Q5S007 1-2527, R50H | S1647T | M2397T); test: cryo-EM structure
Sequence of human leucine-rich repeat kinase 2 (LRRK2), full-length, recombinant (Q5S007 whole entry R50H/S1647T/M2397T): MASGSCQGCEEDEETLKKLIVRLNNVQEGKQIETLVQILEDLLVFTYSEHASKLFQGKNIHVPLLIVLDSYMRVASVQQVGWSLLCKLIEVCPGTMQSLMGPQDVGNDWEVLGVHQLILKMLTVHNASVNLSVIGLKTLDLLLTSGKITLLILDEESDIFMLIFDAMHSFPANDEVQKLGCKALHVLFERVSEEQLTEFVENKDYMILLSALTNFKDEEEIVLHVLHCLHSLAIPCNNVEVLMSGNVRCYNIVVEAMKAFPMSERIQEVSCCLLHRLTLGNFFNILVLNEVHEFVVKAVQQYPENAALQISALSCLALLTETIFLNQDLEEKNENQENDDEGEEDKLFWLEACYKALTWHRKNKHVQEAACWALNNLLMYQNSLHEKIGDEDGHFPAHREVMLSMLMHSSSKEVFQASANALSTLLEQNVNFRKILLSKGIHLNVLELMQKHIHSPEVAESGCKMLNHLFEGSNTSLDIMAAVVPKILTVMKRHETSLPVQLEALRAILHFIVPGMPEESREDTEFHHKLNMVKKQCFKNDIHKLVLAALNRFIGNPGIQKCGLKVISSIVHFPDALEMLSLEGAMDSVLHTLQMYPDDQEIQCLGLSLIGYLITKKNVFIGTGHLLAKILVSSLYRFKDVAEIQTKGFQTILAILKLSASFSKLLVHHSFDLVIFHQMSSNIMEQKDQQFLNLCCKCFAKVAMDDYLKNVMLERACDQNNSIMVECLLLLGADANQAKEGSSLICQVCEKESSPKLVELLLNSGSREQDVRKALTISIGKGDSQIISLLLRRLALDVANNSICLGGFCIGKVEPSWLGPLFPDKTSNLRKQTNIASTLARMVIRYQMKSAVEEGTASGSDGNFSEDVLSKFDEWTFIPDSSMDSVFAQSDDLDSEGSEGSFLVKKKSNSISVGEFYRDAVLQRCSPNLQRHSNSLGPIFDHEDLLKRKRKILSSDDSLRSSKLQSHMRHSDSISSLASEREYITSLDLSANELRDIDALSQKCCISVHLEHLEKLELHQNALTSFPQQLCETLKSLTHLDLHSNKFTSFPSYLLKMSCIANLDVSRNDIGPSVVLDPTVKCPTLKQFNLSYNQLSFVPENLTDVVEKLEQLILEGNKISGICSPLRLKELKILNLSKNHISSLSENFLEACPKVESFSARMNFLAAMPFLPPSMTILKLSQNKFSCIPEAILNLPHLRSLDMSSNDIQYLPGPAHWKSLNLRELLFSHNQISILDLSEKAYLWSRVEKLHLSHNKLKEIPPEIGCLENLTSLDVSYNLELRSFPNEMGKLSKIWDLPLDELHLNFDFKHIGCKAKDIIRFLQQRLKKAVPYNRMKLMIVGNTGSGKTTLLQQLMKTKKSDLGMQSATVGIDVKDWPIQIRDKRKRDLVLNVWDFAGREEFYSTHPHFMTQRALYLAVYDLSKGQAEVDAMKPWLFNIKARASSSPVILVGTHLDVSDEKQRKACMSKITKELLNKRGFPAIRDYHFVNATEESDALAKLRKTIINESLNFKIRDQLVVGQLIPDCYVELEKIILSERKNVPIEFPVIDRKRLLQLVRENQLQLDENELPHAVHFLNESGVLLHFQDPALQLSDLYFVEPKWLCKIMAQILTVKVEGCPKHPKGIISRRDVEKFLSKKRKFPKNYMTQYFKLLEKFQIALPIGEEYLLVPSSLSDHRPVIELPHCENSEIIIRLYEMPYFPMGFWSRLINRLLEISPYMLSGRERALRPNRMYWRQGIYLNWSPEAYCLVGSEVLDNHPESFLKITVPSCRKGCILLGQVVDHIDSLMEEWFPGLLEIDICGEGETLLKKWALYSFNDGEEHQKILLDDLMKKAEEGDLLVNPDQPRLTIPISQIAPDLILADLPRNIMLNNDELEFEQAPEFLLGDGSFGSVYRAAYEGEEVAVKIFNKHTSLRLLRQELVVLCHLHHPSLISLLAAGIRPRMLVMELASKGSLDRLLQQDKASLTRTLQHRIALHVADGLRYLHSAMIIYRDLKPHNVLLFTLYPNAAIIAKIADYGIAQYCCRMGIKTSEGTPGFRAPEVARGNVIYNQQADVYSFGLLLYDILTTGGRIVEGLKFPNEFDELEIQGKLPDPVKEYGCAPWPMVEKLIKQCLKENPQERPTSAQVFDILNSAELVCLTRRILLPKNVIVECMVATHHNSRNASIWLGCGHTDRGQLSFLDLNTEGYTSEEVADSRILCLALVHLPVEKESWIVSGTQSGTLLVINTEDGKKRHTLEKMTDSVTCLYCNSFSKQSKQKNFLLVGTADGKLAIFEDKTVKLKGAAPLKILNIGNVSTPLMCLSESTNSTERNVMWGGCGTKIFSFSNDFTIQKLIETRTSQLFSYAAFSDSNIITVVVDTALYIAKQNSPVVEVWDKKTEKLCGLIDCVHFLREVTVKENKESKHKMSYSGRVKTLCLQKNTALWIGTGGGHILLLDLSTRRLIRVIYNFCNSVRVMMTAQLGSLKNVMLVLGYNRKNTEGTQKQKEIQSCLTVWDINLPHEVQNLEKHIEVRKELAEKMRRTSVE

- stoichiometry N (LRRK2 protomers) [1]: 2 and 4
Molecule: human leucine-rich repeat kinase 2 (LRRK2), full-length, recombinant, Q5S007 1-2527

- stoichiometry N [2]: 1 Rab29 per LRRK2
B1: Rab29 (residues 1-177) Q67L/T71A/S72A, GST tag removed (domain or fragment, human, UniProt O14966 1-177, looked up)
chain: MGSRDHLFKVLVVGDAAVGKTSLVQRYSQDSFSKHYKSTVGVDFALKVLQWSDYEIVRLQLWDIAGLERFAAMTRLYYRDASACVIMFDVTNATTFSNSQRWKQDLDSKLTLPNGEPVPCLLLANKCDLSPWAVSRDQIDRFSKENGFTGWTETSVKENKNINEAMRVLIEKMMRNS
